T1: human CD19 cell-surface protein (on Raji cells) (human, UniProt P15391 20-556)
T1 construct: whole, on cells; also called hCD19
T1 sequence (looked up): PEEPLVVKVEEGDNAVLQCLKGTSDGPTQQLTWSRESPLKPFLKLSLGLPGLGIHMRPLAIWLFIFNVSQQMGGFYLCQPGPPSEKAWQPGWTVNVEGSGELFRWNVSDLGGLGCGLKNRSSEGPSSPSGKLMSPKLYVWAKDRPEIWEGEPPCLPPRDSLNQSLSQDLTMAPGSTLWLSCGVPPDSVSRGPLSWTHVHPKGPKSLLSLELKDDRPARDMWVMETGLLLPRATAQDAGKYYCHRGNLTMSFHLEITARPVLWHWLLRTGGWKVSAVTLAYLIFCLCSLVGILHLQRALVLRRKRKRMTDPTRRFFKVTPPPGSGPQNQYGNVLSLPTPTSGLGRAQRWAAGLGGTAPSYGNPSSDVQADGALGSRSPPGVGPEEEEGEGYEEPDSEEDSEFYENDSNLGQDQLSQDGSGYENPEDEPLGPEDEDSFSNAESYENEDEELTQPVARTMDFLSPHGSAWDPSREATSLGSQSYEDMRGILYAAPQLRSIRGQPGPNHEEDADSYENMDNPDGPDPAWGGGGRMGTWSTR


Tests used:
[1] = target: T2, alpha 2 subunit of the human VLA-2 receptor (on HT1080 cells) (human, UniProt P17301 30-1181); assay: flow cytometry on HT1080 cells, detected with mouse anti c-myc tag antibody
T2 construct: whole, on cells; also called hVLA2

[2] = target: T1, human CD19 cell-surface protein (on …); assay: flow cytometry on Raji cells, detected with mouse anti His tag antibody
[3] = target: T1, human CD19 cell-surface protein (on …); assay: flow cytometry on Raji cells (CD19+ VLA2-), 10 µg/ml, detected by c-myc tag (FIG. 31A) and by His tag (FIG. 31B)
[4] = target: T3, VL-Fc (BTB)-F405A-Y407S chain; assay: co-expression in HEK293-EBNA, protein-A purification, non-reducing SDS-PAGE scanning densitometry, impurities omitted
T3 construct: Human IGHG1 Fc chain with the named substitutions (EU numbering), fused to a variable light-chain kappa domain antibody

[5] = target: T4, VL-Fc (BTB)-F405A-K409R chain; assay: as above
T4 construct: Human IGHG1 Fc chain with the named substitutions (EU numbering), fused to a variable light-chain kappa domain antibody

[6] = target: T5, VL-Fc (BTB)-Y407S-K409R chain; assay: as above
T5 construct: Human IGHG1 Fc chain with the named substitutions (EU numbering), fused to a variable light-chain kappa domain antibody

[7] = target: T6, VL-Fc (BTB)-F405A-Y407S-K409R chain; assay: as above
T6 construct: Human IGHG1 Fc chain with the named substitutions (EU numbering), fused to a variable light-chain kappa domain antibody

[8] = target: T7, VL-Fc (BTB)-F405A-Y407S-K409R-T411R chain; assay: as above
T7 construct: Human IGHG1 Fc chain with the named substitutions (EU numbering), fused to a variable light-chain kappa domain antibody

VL-Fc IGHGA chain = target: T8, VL-Fc IGHGA chain; assay: co-expression in HEK293-EBNA, protein-A purification, non-reducing SDS-PAGE scanning densitometry
T8 construct: Human IGHG1 Fc chain with CH3 substitutions S364T, K392L, T394W, K409I, T411R (EU numbering), fused to VL

VL-BT gamma chain = assay: as above
[9] = target: T9, VL-Fc (BTB)-K409R-T411R chain; assay: co-expression in HEK293-EBNA, protein-A purification, non-reducing SDS-PAGE scanning densitometry, impurities omitted
T9 construct: Human IGHG1 Fc chain with the named substitutions (EU numbering), fused to a variable light-chain kappa domain antibody

VL-BT beta F405A chain = assay: co-expression in HEK293-EBNA, protein-A purification, non-reducing SDS-PAGE scanning densitometry

hetero-dimer formation percentage [4] | hetero-dimer formation percentage [5] | hetero-dimer formation percentage [6] | hetero-dimer formation percentage [7] | hetero-dimer formation percentage [8] | Binder | also measured
– | – | – | – | – | anti-hCD19 antibody (antibody, human IgG1, V domains shown, Control with a single specificity, obtained by co-transfection of chain three with chain four of the bispecific antibody) VH: QVQLVQSGGGVVQPGRSLRLSCAASGVSLPDYGVSWVRQAPGKGLEWVAVIWGSETTYYNSALKSRFTISRDNSKNTLYLQMNSLRAEDTAVYYCAKHYYYGGSYAMDYWGQGTLVTVSS VL: DIQMTQSPSSLSASVGDRVTITCRASQDISKYLNWYQQKPGKAIKLLIYHTSRLHSGVPSRFSGSGSGTDFTLTISSLQPEDFATYYCQQGATLPYTFGPGTKVDIKR | binding result [1]: no binding
– | – | – | – | – | anti-hVLA2 antibody (antibody, human IgG1, kappa, V domains shown, Control with a single specificity, obtained by co-transfection of chain one with chain two of the bispecific antibody) VH: QVQLQESGPGLVKPSETLSLTCTVSGFSLTNYGIHWIRQPPGKGLEWLGVIWARGFTNYNSALMSRLTISKDNSKNQVSLKLSSVTAADTAVYYCARANDGVYYAMDYWGQGTLVTVSS VL: DFVMTQSPAFLSVTPGEKVTITCSAQSSVNYIHWYQQKPDQAPKKLIYDTSKLASGVPSRFSGSGSGTDYTFTISSLEAEDAATYYCQQWTTNPLTFGQGTKVEIKR | binding result [2]: no binding
– | – | – | – | – | anti-hCD19_anti-hVLA2 bispecific antibody (bispecific antibody, human IgG1, kappa, Four distinct chains; also called anti-hCD19_anti-VLA2 bispecific antibody) heavy 1: QVQLQESGPGLVKPSETLSLTCTVSGFSLTNYGIHWIRQPPGKGLEWLGVIWARGFTNYNSALMSRLTISKDNSKNQVSLKLSSVTAADTAVYYCARANDGVYYAMDYWGQGTLVTVSSASTKGPSVFPLAPSSKSTSGGTAALGCLVKDYFPEPVTVSWNSGALTSGVHTFPAVLQSSGLYSLSSVVTVPSSSLGTQTYICNVNHKPSNTKVDKKVEPKSCDKTHTCPPCPAPELLGGPSVFLFPPKPKDTLMISRTPEVTCVVVDVSHEDPEVKFNWYVDGVEVHNAKTKPREEQYNSTYRVVSVLTVLHQDWLNGKEYKCKVSNKALPAPIEKTISKAKGQPREPQVYTLPPSRDELTKNQVKLVCLVTGFYPSDIAVEWESNGQPENNYYTTPPVLDSDGSFSLVSWLNVDKSRWQQGNVFSCSVMHEALHNHYTQKSLSLSPGKHHHHHH light 1: DFVMTQSPAFLSVTPGEKVTITCSAQSSVNYIHWYQQKPDQAPKKLIYDTSKLASGVPSRFSGSGSGTDYTFTISSLEAEDAATYYCQQWTTNPLTFGQGTKVEIKRTVAAPSVFIFPPSDEQLKSGTASVVCLLNNFYPREAKVQWKVDNALQSGNSQESVTEQDSKDSTYSLSSTLTLSKADYEKHKVYACEVTHQGLSSPVTKSFNRGEC heavy 2: QVQLVQSGGGVVQPGRSLRLSCAASGVSLPDYGVSWVRQAPGKGLEWVAVIWGSETTYYNSALKSRFTISRDNSKNTLYLQMNSLRAEDTAVYYCAKHYYYGGSYAMDYWGQGTLVTVSSASTKGPSVFPMAPSSKSTSGGTANLACLVKEYFPEPVTVSWNSGALTSGVFTAPAVLSSSGLYNLVSLVKVPSSSLGTQTYICNVNHKPSNTKVDKKVEPKSCDKTHTCPPCPAPELLGGPSVFLFPPKPKDTLMISRTPEVTCVVVDVSHEDPEVKFNWYVDGVEVHNAKTKPREEQYNSTYRVVSVLTVLHQDWLNGKEYKCKVSNKALPAPIEKTISKAKGQPREPEVATFPPSRDELTKNQVTLVCLVTGFYPSDIAVEWESNGQPENNYKTDPPLLESDGSFALSSRLRVDKSRWQQGNVFSCSVMHEALHNHYTQKSLSLSPGKEQKLISEEDLN light 2: DIQMTQSPSSLSASVGDRVTITCRASQDISKYLNWYQQKPGKAIKLLIYHTSRLHSGVPSRFSGSGSGTDFTLTISSLQPEDFATYYCQQGATLPYTFGPGTKVDIKRTVAAPKVTIFPPSDEQLKSGTATVLCLLEKFYPREAKVQWKVDNALQSGNSQEGVMEQDSKDSTYMLFSWLTLSKADYEKHKVYACEVTHQGLSSPVTKSFNRGEC | binding result [3]: binds
7% | 4% | 5% | 15% | 9% | Fc (BTA)-F405S-Y407V-K409W-T411N chain (other, Human IGHG1 Fc chain with the named substitutions (EU numbering)) DKTHTCPPCPAPELLGGPSVFLFPPKPKDTLMISRTPEVTCVVVDVSHEDPEVKFNWYVDGVEVHNAKTKPREEQYNSTYRVVSVLTVLHQDWLNGKEYKCKVSNKALPAPIEKTISKAKGQPREPQVYTLPPSRDELTKNQVSLTCLVKGFYPSDIAVEWESNGQPENNYKTTPPVLDSDGSFSLVSWLNVDKSRWQQGNVFSCSVMHEALHNHYTQKSLSLSPGK | –
– | – | – | – | – | Fc IGHAG chain (other, Human IGHG1 Fc chain with CH3 substitutions Q347E, Y349H, K370R, V397R, D399E, F405A, Y407T (EU numbering)) DKTHTCPPCPAPELLGGPSVFLFPPKPKDTLMISRTPEVTCVVVDVSHEDPEVKFNWYVDGVEVHNAKTKPREEQYNSTYRVVSVLTVLHQDWLNGKEYKCKVSNKALPAPIEKTISKAKGQPREPEVHTLPPSRDELTKNQVSLTCLVRGFYPSDIAVEWESNGQPENNYKTTPPRLESDGSFALTSKLTVDKSRWQQGNVFSCSVMHEALHNHYTQKSLSLSPGK | hetero-dimer percent of the protein-A purified material (VL-Fc IGHGA chain): ≥ 54%
– | – | – | – | – | BT delta chain (other) DKTHTCPPCPAPELLGGPSVFLFPPKPKDTLMISRTPEVTCVVVDVSHEDPEVKFNWYVDGVEVHNAKTKPREEQYNSTYRVVSVLTVLHQDWLNGKEYKCKVSNKALPAPIEKTISKAKGQPREPQVYTMPPSRDELTKNQVNLACLVKEFYPSDIAVEWESNGQPENNYFTAPPVLSSDGSFNLVSLLKVDKSRWQQGNVFSCSVMHEALHNHYTQKSLSLSPGK | hetero-dimer percent of the protein-A purified material (VL-BT gamma chain): ≥ 52.1%
50% | 25% | 25% | 52% | 53% | Fc (BTA)-Y407V-K409W-T411N chain (other, Human IGHG1 Fc chain with the named substitutions (EU numbering)) DKTHTCPPCPAPELLGGPSVFLFPPKPKDTLMISRTPEVTCVVVDVSHEDPEVKFNWYVDGVEVHNAKTKPREEQYNSTYRVVSVLTVLHQDWLNGKEYKCKVSNKALPAPIEKTISKAKGQPREPQVYTLPPSRDELTKNQVSLTCLVKGFYPSDIAVEWESNGQPENNYKTTPPVLDSDGSFFLVSWLNVDKSRWQQGNVFSCSVMHEALHNHYTQKSLSLSPGK | –
90% | 60% | 74% | 72% | 88% | Fc (BTA)-S364K-T366V-K370T-K392Y-K409W-T411N chain (other, Human IGHG1 Fc chain with the named substitutions (EU numbering)) DKTHTCPPCPAPELLGGPSVFLFPPKPKDTLMISRTPEVTCVVVDVSHEDPEVKFNWYVDGVEVHNAKTKPREEQYNSTYRVVSVLTVLHQDWLNGKEYKCKVSNKALPAPIEKTISKAKGQPREPQVYTLPPSRDELTKNQVKLVCLVTGFYPSDIAVEWESNGQPENNYYTTPPVLDSDGSFFLYSWLNVDKSRWQQGNVFSCSVMHEALHNHYTQKSLSLSPGK | hetero-dimer formation percentage [9]: 32%
– | – | – | – | – | BT alpha IGHG3 chain (other) DKTHTCPPCPAPELLGGPSVFLFPPKPKDTLMISRTPEVTCVVVDVSHEDPEVKFNWYVDGVEVHNAKTKPREEQYNSTYRVVSVLTVLHQDWLNGKEYKCKVSNKALPAPIEKTISKAKGQPREPQVYTLPPSREEMTKNQVKLVCLVTGFYPSDIAVEWESSGQPENNYYTTPPMLDSDGSFSLVSWLNVDKSRWQQGNIFSCSVMHEALHNRFTQKSLSLSPGK | hetero-dimer percent of the protein-A purified material (VL-BT beta F405A chain): ≥ 91%
